In paper PMC10404244, “Control of motor landing and processivity by the CAP-Gly domain in the KIF13B tail” (Nature Communications, 2023):

Experiments:
[1] = target: T1, tyrosinated microtubules polymerized from recombinant human α1A/βIII tubulin (human, UniProt Q71U36 1-451; Q13509 1-450); test: TIRF microscopy microtubule-binding assay (standard deviation map); differentially labelled tyrosinated and detyrosinated taxol microtubules held by biotin-streptavidin in the same chamber, sfGFP motors in solution, 2 mM ATP, HP assay buffer pH 7.0; conditions: both partners purified
T1 construct: human alpha-tubulin isotype α1A, fully tyrosinated; human beta-tubulin isotype βIII; Plasmids (pFAST-Dual) were gifts from A. Roll-Mecak; also called recombinant human tubulin (fully tyrosinated); not shown: His tag (from the HisTrap purification)

[2] = target: the molecule itself; test: mass photometry; 5, 25 and 100 nM protein in HP buffer (90 mM HEPES, 10 mM PIPES, 50 mM K-acetate, 2 mM Mg-acetate, 1 mM EGTA, 10% glycerol, pH 7.0), room temperature; result told over the whole range; monomer to dimer

T1 sequence (Q71U36 whole entry, chain 1 of 2): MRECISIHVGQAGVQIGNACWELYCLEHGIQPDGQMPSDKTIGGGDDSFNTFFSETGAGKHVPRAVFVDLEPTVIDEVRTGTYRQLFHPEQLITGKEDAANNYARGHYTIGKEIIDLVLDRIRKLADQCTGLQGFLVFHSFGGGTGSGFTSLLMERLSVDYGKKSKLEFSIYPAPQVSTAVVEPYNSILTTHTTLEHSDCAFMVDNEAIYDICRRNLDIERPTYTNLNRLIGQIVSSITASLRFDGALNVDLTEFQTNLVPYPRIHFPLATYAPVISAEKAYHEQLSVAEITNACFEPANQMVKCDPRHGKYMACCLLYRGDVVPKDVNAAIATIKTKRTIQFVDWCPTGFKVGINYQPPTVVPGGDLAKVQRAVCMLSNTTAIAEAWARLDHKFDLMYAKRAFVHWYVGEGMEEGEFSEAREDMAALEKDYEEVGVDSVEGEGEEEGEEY
T1 sequence (Q13509 whole entry, chain 2 of 2): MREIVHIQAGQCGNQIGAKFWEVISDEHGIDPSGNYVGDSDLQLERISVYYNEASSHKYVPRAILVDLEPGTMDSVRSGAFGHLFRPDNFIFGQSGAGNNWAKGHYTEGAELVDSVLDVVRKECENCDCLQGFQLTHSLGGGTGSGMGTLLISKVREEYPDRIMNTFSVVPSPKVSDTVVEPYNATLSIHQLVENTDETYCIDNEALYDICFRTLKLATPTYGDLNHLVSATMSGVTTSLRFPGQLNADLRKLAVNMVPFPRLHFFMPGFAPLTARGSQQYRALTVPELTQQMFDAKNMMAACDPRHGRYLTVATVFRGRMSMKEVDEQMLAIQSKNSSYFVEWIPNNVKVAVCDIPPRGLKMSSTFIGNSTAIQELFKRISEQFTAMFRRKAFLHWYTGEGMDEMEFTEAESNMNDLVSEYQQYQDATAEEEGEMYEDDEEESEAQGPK

Binder | binding result [1] | binding result [2]
full-length human KIF13B (wild type), C-terminal sfGFP-StrepII (natural protein, KIF13B, human, full-length cDNA from Transomics (BC172411); Predominantly monomeric in solution, minor dimer fraction (mass photometry); also called WT KIF13B; full-length KIF13B; source: Sf9 insect cells (baculovirus), purified (Strep-Tactin XT, gel filtration); not shown: sfGFP, C-terminal, kept) MGDSKVKVAVRIRPMNRRETDLHTKCVVDVDANKVILNPVNTNLSKGDARGQPKVFAYDHCFWSMDESVKEKYAGQDIVFKCLGENILQNAFDGYNACIFAYGQTGSGKSYTMMGTADQPGLIPRLCSGLFERTQKEENEEQSFKVEVSYMEIYNEKVRDLLDPKGSRQTLKVREHSVLGPYVDGLSKLAVTSYKDIESLMSEGNKSRTVAATNMNEESSRSHAVFKITLTHTLYDVKSGTSGEKVGKLSLVDLAGSERATKTGAAGDRLKEGSNINKSLTTLGLVISALADQSAGKNKNKFVPYRDSVLTWLLKDSLGGNSKTAMVATVSPAADNYDETLSTLRYADRAKHIVNHAVVNEDPNARIIRDLREEVEKLREQLTKAEAMKSPELKDRLEESEKLIQEMTVTWEEKLRKTEEIAQERQKQLESLGISLQSSGIKVGDDKCFLVNLNADPALNELLVYYLKEHTLIGSANSQDIQLCGMGILPEHCIIDITSEGQVMLTPQKNTRTFVNGSSVSSPIQLHHGDRILWGNNHFFRLNLPKKKKKAEREDEDQDPSMKNENSSEQLDVDGDSSSEVSSEVNFNYEYAQMEVTMKALGSNDPMQSILNSLEQQHEEEKRSALERQRLMYEHELEQLRRRLSPEKQNCRSMDRFSFHSPSAQQRLRQWAEEREATLNNSLMRLREQIVKANLLVREANYIAEELDKRTEYKVTLQIPASSLDANRKRGSLLSEPAIQVRRKGKGKQIWSLEKLDNRLLDMRDLYQEWKECEEDNPVIRSYFKRADPFYDEQENHSLIGVANVFLESLFYDVKLQYAVPIINQKGEVAGRLHVEVMRLSGDVGERIAGGDEVAEVSFEKETQENKLVCMVKILQATGLPQHLSHFVFCKYSFWDQQEPVIVAPEVDTSSSSVSKEPHCMVVFDHCNEFSVNITEDFIEHLSEGALAIEVYGHKINDPRKNPALWDLGIIQAKTRSLRDRWSEVTRKLEFWVQILEQNENGEYCPVEVISAKDVPTGGIFQLRQGQSRRVQVEVKSVQESGTLPLMEECILSVGIGCVKVRPLRAPRTHETFHEEEEDMDSYQDRDLERLRRKWLNALTKRQEYLDQQLQKLVSKRDKTEDDADREAQLLEMRLTLTEERNAVMVPSAGSGIPGAPAEWTPVPGMETHIPVIFLDLNADDFSSQDNLDDPEAGGWDATLTGEEEEEFFELQIVKQHDGEVKAEASWDSAVHGCPQLSRGTPVDERLFLIVRVTVQLSHPADMQLVLRKRICVNVHGRQGFAQSLLKKMSHRSSIPGCGVTFEIVSNIPEDAQGVEEREALARMAANVENPASADSEAYIEKYLRSVLAVENLLTLDRLRQEVAVKEQLTGKGKLSRRSISSPNVNRLSGSRQDLIPSYSLGSNKGRWESQQDVSQTTVSRGIAPAPALSVSPQNNHSPDPGLSNLAASYLNPVKSFVPQMPKLLKSLFPVRDEKRGKRPSPLAHQPVPRIMVQSASPDIRVTRMEEAQPEMGPDVLVQTMGAPALKICDKPAKVPSPPPVIAVTAVTPAPEAQDGPPSPLSEASSGYFSHSVSTATLSDALGPGLDAAAPPGSMPTAPEAEPEAPISHPPPPTAVPAEEPPGPQQLVSPGRERPDLEAPAPGSPFRVRRVRASELRSFSRMLAGDPGCSPGAEGNAPAPGAGGQALASDSEEADEVPEWLREGEFVTVGAHKTGVVRYVGPADFQEGTWVGVELDLPSGKNDGSIGGKQYFRCNPGYGLLVRPSRVRRATGPVRRRSTGLRLGAPEARRSATLSGSATNLASLTAALAKADRSHKNPENRKSWAS | binds | 
full-length human KIF13B V178Q, C-terminal sfGFP-StrepII (natural protein, UniProt Q9NQT8 1-1826, looked up, source: Sf9 insect cells (baculovirus), purified (Strep-Tactin XT, gel filtration); not shown: sfGFP, C-terminal, kept) MGDSKVKVAVRIRPMNRRETDLHTKCVVDVDANKVILNPVNTNLSKGDARGQPKVFAYDHCFWSMDESVKEKYAGQDIVFKCLGENILQNAFDGYNACIFAYGQTGSGKSYTMMGTADQPGLIPRLCSGLFERTQKEENEEQSFKVEVSYMEIYNEKVRDLLDPKGSRQTLKVREHSQLGPYVDGLSKLAVTSYKDIESLMSEGNKSRTVAATNMNEESSRSHAVFKITLTHTLYDVKSGTSGEKVGKLSLVDLAGSERATKTGAAGDRLKEGSNINKSLTTLGLVISALADQSAGKNKNKFVPYRDSVLTWLLKDSLGGNSKTAMVATVSPAADNYDETLSTLRYADRAKHIVNHAVVNEDPNARIIRDLREEVEKLREQLTKAEAMKSPELKDRLEESEKLIQEMTVTWEEKLRKTEEIAQERQKQLESLGISLQSSGIKVGDDKCFLVNLNADPALNELLVYYLKEHTLIGSANSQDIQLCGMGILPEHCIIDITSEGQVMLTPQKNTRTFVNGSSVSSPIQLHHGDRILWGNNHFFRLNLPKKKKKAEREDEDQDPSMKNENSSEQLDVDGDSSSEVSSEVNFNYEYAQMEVTMKALGSNDPMQSILNSLEQQHEEEKRSALERQRLMYEHELEQLRRRLSPEKQNCRSMDRFSFHSPSAQQRLRQWAEEREATLNNSLMRLREQIVKANLLVREANYIAEELDKRTEYKVTLQIPASSLDANRKRGSLLSEPAIQVRRKGKGKQIWSLEKLDNRLLDMRDLYQEWKECEEDNPVIRSYFKRADPFYDEQENHSLIGVANVFLESLFYDVKLQYAVPIINQKGEVAGRLHVEVMRLSGDVGERIAGGDEVAEVSFEKETQENKLVCMVKILQATGLPQHLSHFVFCKYSFWDQQEPVIVAPEVDTSSSSVSKEPHCMVVFDHCNEFSVNITEDFIEHLSEGALAIEVYGHKINDPRKNPALWDLGIIQAKTRSLRDRWSEVTRKLEFWVQILEQNENGEYCPVEVISAKDVPTGGIFQLRQGQSRRVQVEVKSVQESGTLPLMEECILSVGIGCVKVRPLRAPRTHETFHEEEEDMDSYQDRDLERLRRKWLNALTKRQEYLDQQLQKLVSKRDKTEDDADREAQLLEMRLTLTEERNAVMVPSAGSGIPGAPAEWTPVPGMETHIPVIFLDLNADDFSSQDNLDDPEAGGWDATLTGEEEEEFFELQIVKQHDGEVKAEASWDSAVHGCPQLSRGTPVDERLFLIVRVTVQLSHPADMQLVLRKRICVNVHGRQGFAQSLLKKMSHRSSIPGCGVTFEIVSNIPEDAQGVEEREALARMAANVENPASADSEAYIEKYLRSVLAVENLLTLDRLRQEVAVKEQLTGKGKLSRRSISSPNVNRLSGSRQDLIPSYSLGSNKGRWESQQDVSQTTVSRGIAPAPALSVSPQNNHSPDPGLSNLAASYLNPVKSFVPQMPKLLKSLFPVRDEKRGKRPSPLAHQPVPRIMVQSASPDIRVTRMEEAQPEMGPDVLVQTMGAPALKICDKPAKVPSPPPVIAVTAVTPAPEAQDGPPSPLSEASSGYFSHSVSTATLSDALGPGLDAAAPPGSMPTAPEAEPEAPISHPPPPTAVPAEEPPGPQQLVSPGRERPDLEAPAPGSPFRVRRVRASELRSFSRMLAGDPGCSPGAEGNAPAPGAGGQALASDSEEADEVPEWLREGEFVTVGAHKTGVVRYVGPADFQEGTWVGVELDLPSGKNDGSIGGKQYFRCNPGYGLLVRPSRVRRATGPVRRRSTGLRLGAPEARRSATLSGSATNLASLTAALAKADRSHKNPENRKSWAS |  | binds
full-length human KIF13B K414A, C-terminal sfGFP-StrepII (natural protein, UniProt Q9NQT8 1-1826, looked up, also called KI13B^K414A; source: Sf9 insect cells (baculovirus), purified (Strep-Tactin XT, gel filtration); not shown: sfGFP, C-terminal, kept) MGDSKVKVAVRIRPMNRRETDLHTKCVVDVDANKVILNPVNTNLSKGDARGQPKVFAYDHCFWSMDESVKEKYAGQDIVFKCLGENILQNAFDGYNACIFAYGQTGSGKSYTMMGTADQPGLIPRLCSGLFERTQKEENEEQSFKVEVSYMEIYNEKVRDLLDPKGSRQTLKVREHSVLGPYVDGLSKLAVTSYKDIESLMSEGNKSRTVAATNMNEESSRSHAVFKITLTHTLYDVKSGTSGEKVGKLSLVDLAGSERATKTGAAGDRLKEGSNINKSLTTLGLVISALADQSAGKNKNKFVPYRDSVLTWLLKDSLGGNSKTAMVATVSPAADNYDETLSTLRYADRAKHIVNHAVVNEDPNARIIRDLREEVEKLREQLTKAEAMKSPELKDRLEESEKLIQEMTVTWEEALRKTEEIAQERQKQLESLGISLQSSGIKVGDDKCFLVNLNADPALNELLVYYLKEHTLIGSANSQDIQLCGMGILPEHCIIDITSEGQVMLTPQKNTRTFVNGSSVSSPIQLHHGDRILWGNNHFFRLNLPKKKKKAEREDEDQDPSMKNENSSEQLDVDGDSSSEVSSEVNFNYEYAQMEVTMKALGSNDPMQSILNSLEQQHEEEKRSALERQRLMYEHELEQLRRRLSPEKQNCRSMDRFSFHSPSAQQRLRQWAEEREATLNNSLMRLREQIVKANLLVREANYIAEELDKRTEYKVTLQIPASSLDANRKRGSLLSEPAIQVRRKGKGKQIWSLEKLDNRLLDMRDLYQEWKECEEDNPVIRSYFKRADPFYDEQENHSLIGVANVFLESLFYDVKLQYAVPIINQKGEVAGRLHVEVMRLSGDVGERIAGGDEVAEVSFEKETQENKLVCMVKILQATGLPQHLSHFVFCKYSFWDQQEPVIVAPEVDTSSSSVSKEPHCMVVFDHCNEFSVNITEDFIEHLSEGALAIEVYGHKINDPRKNPALWDLGIIQAKTRSLRDRWSEVTRKLEFWVQILEQNENGEYCPVEVISAKDVPTGGIFQLRQGQSRRVQVEVKSVQESGTLPLMEECILSVGIGCVKVRPLRAPRTHETFHEEEEDMDSYQDRDLERLRRKWLNALTKRQEYLDQQLQKLVSKRDKTEDDADREAQLLEMRLTLTEERNAVMVPSAGSGIPGAPAEWTPVPGMETHIPVIFLDLNADDFSSQDNLDDPEAGGWDATLTGEEEEEFFELQIVKQHDGEVKAEASWDSAVHGCPQLSRGTPVDERLFLIVRVTVQLSHPADMQLVLRKRICVNVHGRQGFAQSLLKKMSHRSSIPGCGVTFEIVSNIPEDAQGVEEREALARMAANVENPASADSEAYIEKYLRSVLAVENLLTLDRLRQEVAVKEQLTGKGKLSRRSISSPNVNRLSGSRQDLIPSYSLGSNKGRWESQQDVSQTTVSRGIAPAPALSVSPQNNHSPDPGLSNLAASYLNPVKSFVPQMPKLLKSLFPVRDEKRGKRPSPLAHQPVPRIMVQSASPDIRVTRMEEAQPEMGPDVLVQTMGAPALKICDKPAKVPSPPPVIAVTAVTPAPEAQDGPPSPLSEASSGYFSHSVSTATLSDALGPGLDAAAPPGSMPTAPEAEPEAPISHPPPPTAVPAEEPPGPQQLVSPGRERPDLEAPAPGSPFRVRRVRASELRSFSRMLAGDPGCSPGAEGNAPAPGAGGQALASDSEEADEVPEWLREGEFVTVGAHKTGVVRYVGPADFQEGTWVGVELDLPSGKNDGSIGGKQYFRCNPGYGLLVRPSRVRRATGPVRRRSTGLRLGAPEARRSATLSGSATNLASLTAALAKADRSHKNPENRKSWAS |  | binds
human KIF13B CAP-Gly fragment (a.a. 1685–1826), N-terminal sfGFP-StrepII (domain or fragment, KIF13B, human, a.a; 1685–1826: CAP-Gly domain and an ~80 residue unstructured C-terminal region; The sfGFP-StrepII tag is joined to the N-terminus of the fragment through a 3xGGGGS linker (pET28a); the methods hold here; also called KIF13B^CG; KIF13^CG; source: E. coli BL21-CodonPlus (DE3)-RIPL, purified (Strep-Tactin XT, HiTrap Q, Superdex 200); not shown: sfGFP, N-terminal, kept) QALASDSEEADEVPEWLREGEFVTVGAHKTGVVRYVGPADFQEGTWVGVELDLPSGKNDGSIGGKQYFRCNPGYGLLVRPSRVRRATGPVRRRSTGLRLGAPEARRSATLSGSATNLASLTAALAKADRSHKNPENRKSWAS | binds | 
